# Laboratory results from patent publication US20180258163A1 (Chugai, published 2018).
# Substitutions are numbered along the chain they refer to. Names may count otherwise.
# T1: soluble human FcγRIIb (human, UniProt P31994 43-217, limits assumed)
# T1 construct: soluble His-tagged form; also called hFcγRIIb
# T1 sequence (looked up): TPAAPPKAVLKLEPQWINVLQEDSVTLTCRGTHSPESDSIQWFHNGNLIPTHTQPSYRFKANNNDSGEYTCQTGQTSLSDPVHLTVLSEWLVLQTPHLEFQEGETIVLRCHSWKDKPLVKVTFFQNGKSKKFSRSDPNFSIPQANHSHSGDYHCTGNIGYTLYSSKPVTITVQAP
# B1: Ab1H-P937/Ab1L (antibody, human IgG1, kappa, name in EU numbering)
# heavy: QVQLVESGGGLVQPGGSLRLSCAASGFTLSNHDMTWVRQAPGKGLEYVSIINTYGNHWYANWASGRFTISRDNSKNTVYLQIDSLRAEDTATYYCARETHHGSSGIDHWGQGTLVTVSSASTKGPSVFPLAPSSKSTSGGTAALGCLVKDYFPEPVTVSWNSGALTSGVHTFPAVLQSSGLYSLSSVVTVPSSSLGTQTYICNVNHKPSNTKVDKKVEPKSCDKTHTCPPCPAPELLGGDSVFLFPPKPKDTLMISRTPEVTCVVVDVSHEDPRVKFNWYVDGVEVHNAKTKPREEQYNATYRVVSVLTVLHQDWLNGKEYKCKVSNKALPAPIEKTISKAKGQPREPQVYTLPPSREEMTKNQVSLTCLVKGFYPSDIAVEWESNGQPENNYKTTPPVLDSDGSFFLYSKLTVDKSRWQQGNVFSCSVMHEALHNHYTQKSLSLSP
# light: DIQMTQSPSSVSASVGDRVTITCQASESIYSGLAWYQQKPGQPPKLLIYDHSTLASGVPSRFSGSGSGTEYALTISSLQPEDFATYYCQHADYAHHSDNVFGGGTKVEIKRTVAAPSVFIFPPSDEQLKSGTASVVCLLNNFYPREAKVQWKVDNALQSGNSQESVTEQDSKDSTYSLSSTLTLSKADYEKHKVYACEVTHQGLSSPVTKSFNRGEC
# notes: copies: 2 + 2
# B2: Ab1H/Ab1L007 (antibody, human IgG1, kappa)
# heavy: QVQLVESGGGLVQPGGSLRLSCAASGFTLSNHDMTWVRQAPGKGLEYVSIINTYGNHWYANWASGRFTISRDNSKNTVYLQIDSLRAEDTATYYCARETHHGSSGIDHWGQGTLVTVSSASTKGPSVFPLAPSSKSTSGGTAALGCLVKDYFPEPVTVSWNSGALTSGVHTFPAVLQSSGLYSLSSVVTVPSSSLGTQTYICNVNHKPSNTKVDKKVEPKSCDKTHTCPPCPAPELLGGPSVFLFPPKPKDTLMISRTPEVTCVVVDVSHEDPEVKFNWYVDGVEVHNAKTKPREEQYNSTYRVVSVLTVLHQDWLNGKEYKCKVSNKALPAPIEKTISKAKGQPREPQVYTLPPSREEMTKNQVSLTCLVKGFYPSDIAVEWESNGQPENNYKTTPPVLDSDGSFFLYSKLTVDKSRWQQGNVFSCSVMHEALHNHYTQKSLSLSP
# light: B1 light with Q37R
# notes: copies: 2 + 2
# B3: Ab1H/Ab1L034 (antibody, human IgG1, kappa)
# heavy: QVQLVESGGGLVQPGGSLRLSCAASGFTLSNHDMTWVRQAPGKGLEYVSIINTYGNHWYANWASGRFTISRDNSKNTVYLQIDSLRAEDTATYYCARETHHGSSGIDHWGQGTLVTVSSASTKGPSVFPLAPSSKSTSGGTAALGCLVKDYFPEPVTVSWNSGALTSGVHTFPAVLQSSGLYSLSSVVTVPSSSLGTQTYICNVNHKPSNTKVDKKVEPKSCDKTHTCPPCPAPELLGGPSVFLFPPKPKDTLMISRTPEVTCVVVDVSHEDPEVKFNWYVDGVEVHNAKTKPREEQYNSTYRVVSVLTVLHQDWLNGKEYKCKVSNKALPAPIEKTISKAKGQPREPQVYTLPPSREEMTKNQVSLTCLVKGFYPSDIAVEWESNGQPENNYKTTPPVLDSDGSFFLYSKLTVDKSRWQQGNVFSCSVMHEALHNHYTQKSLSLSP
# light: B1 light with Q24R, E27R, S52R, S56R, S65R, T69R
# notes: copies: 2 + 2
# B4: Ab1H-P941/Ab1L (antibody, human IgG1, kappa, name in EU numbering)
# heavy: B1 heavy with H270R, R274E
# light: B1 light
# notes: copies: 2 + 2
# B5: Ab1H/Ab1L017 (antibody, human IgG1, kappa)
# heavy: not shown
# light: B1 light with Q24R, E27R, G41R, Q42K
# notes: copies: 2 + 2
# B6: Ab1H/Ab1L013 (antibody, human IgG1, kappa)
# heavy: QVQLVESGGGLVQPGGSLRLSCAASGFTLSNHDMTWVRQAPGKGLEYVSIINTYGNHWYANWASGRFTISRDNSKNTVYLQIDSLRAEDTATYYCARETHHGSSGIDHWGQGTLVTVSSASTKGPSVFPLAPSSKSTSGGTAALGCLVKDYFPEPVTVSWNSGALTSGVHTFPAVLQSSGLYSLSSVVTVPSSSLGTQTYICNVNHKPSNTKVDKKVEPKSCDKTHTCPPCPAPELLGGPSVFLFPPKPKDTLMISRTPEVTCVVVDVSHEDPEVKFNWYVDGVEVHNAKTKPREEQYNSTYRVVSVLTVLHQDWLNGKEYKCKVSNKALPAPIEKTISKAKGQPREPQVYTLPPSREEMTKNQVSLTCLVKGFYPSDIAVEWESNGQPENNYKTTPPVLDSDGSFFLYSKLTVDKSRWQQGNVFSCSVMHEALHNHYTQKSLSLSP
# light: B1 light with T74K, S77R
# notes: copies: 2 + 2
# B7: Ab1H/Ab1L006 (antibody, human IgG1, kappa)
# heavy: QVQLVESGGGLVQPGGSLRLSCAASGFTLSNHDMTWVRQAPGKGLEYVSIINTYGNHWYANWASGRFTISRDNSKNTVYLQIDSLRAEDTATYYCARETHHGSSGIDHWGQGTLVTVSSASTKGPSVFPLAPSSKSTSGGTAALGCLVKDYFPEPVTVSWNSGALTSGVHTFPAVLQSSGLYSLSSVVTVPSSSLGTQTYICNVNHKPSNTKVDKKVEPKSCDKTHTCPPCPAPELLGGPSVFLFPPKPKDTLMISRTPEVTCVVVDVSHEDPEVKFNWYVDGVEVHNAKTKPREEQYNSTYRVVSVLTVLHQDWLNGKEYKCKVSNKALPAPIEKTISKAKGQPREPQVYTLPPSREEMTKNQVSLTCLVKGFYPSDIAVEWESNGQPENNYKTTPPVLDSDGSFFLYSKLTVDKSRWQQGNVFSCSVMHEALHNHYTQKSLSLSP
# light: B1 light with A25R, S26R
# notes: copies: 2 + 2
# B8: Ab1H/Ab1L008 (antibody, human IgG1, kappa)
# heavy: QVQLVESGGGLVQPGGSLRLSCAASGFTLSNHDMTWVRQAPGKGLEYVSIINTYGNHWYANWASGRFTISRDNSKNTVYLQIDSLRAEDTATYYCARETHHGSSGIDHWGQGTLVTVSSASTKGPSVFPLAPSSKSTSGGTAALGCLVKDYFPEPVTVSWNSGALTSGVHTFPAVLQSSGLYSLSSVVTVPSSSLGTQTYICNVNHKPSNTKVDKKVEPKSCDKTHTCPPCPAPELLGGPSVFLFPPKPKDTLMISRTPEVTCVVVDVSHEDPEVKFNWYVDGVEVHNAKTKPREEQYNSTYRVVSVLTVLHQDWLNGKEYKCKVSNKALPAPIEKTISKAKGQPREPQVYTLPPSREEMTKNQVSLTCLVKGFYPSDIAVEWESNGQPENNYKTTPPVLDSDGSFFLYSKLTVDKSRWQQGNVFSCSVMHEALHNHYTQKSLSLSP
# light: B1 light with G41R, Q42K
# notes: copies: 2 + 2
# B9: Ab1H/Ab1L001 (antibody, human IgG1, kappa)
# heavy: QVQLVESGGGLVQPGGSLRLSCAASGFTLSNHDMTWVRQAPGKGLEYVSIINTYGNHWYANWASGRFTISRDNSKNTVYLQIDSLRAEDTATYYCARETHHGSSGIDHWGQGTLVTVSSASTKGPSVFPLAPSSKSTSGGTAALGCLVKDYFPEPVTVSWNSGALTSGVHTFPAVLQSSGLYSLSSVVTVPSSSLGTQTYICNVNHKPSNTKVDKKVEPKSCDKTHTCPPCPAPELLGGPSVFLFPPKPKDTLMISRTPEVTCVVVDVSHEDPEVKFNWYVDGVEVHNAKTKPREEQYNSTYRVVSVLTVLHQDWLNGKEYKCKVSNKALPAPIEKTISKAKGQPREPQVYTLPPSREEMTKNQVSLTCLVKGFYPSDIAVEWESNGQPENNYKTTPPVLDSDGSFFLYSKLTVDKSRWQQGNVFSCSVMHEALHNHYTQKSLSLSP
# light: B1 light with G16K
# notes: light chain = Ab1L with G16K (Kabat); also called Ab1L001T; copies: 2 + 2
# B10: Ab1H/Ab1L020 (antibody, human IgG1, kappa)
# heavy: not shown
# light: B1 light with Q24R, E27R, S52K, S56K
# notes: copies: 2 + 2
# B11: Ab1H/Ab1L004 (antibody, human IgG1, kappa)
# heavy: not shown
# light: B1 light with Q24K, E27K
# notes: copies: 2 + 2
# B12: Ab1H/Ab1L009 (antibody, human IgG1, kappa)
# heavy: not shown
# light: B1 light with L46R, Y49K
# notes: copies: 2 + 2
# B13: Ab1H/Ab1L002 (antibody, human IgG1, kappa)
# heavy: not shown
# light: B1 light with Q24R, E27Q
# notes: copies: 2 + 2
# B14: Ab1H/Ab1L018 (antibody, human IgG1, kappa)
# heavy: not shown
# light: B1 light with Q24R, E27R, L46R, Y49K
# notes: copies: 2 + 2
# B15: Ab1H/Ab1L003 (antibody, human IgG1, kappa)
# heavy: not shown
# light: B1 light with Q24R, E27R
# notes: copies: 2 + 2
# B16: Ab1H/Ab1L015 (antibody, human IgG1, kappa)
# heavy: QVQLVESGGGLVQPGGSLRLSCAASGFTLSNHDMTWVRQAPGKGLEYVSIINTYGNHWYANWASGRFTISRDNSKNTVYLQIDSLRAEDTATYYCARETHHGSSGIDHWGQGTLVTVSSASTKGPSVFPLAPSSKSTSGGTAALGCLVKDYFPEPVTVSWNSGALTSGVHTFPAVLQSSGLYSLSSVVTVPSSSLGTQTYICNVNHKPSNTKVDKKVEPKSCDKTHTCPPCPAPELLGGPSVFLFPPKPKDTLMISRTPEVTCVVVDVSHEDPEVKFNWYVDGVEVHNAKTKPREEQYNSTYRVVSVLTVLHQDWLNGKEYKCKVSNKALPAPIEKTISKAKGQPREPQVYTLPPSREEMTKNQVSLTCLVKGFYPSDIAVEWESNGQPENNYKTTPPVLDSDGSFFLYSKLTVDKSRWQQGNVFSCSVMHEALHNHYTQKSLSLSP
# light: B1 light with G16K, Q24R, E27R
# notes: copies: 2 + 2
# B17: Ab1H/Ab1L016 (antibody, human IgG1, kappa)
# heavy: not shown
# light: B1 light with Q24R, E27R, Q37R
# notes: copies: 2 + 2
# B18: Ab1H/Ab1L028 (antibody, human IgG1, kappa)
# heavy: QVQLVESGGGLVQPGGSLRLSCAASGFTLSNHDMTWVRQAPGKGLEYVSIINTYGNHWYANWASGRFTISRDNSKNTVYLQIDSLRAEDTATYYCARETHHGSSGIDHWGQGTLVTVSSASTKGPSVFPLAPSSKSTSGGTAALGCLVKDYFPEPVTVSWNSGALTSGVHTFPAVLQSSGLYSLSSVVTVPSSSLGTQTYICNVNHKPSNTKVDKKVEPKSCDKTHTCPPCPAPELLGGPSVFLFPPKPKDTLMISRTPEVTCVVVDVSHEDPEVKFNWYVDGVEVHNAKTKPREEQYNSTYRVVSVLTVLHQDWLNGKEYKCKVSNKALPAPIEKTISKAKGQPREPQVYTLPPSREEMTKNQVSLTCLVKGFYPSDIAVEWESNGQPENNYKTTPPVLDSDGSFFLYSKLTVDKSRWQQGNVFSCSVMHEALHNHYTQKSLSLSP
# light: B1 light with A25R, S26R, S52R, S56R
# notes: copies: 2 + 2
# B19: Ab1H/Ab1L033 (antibody, human IgG1, kappa)
# heavy: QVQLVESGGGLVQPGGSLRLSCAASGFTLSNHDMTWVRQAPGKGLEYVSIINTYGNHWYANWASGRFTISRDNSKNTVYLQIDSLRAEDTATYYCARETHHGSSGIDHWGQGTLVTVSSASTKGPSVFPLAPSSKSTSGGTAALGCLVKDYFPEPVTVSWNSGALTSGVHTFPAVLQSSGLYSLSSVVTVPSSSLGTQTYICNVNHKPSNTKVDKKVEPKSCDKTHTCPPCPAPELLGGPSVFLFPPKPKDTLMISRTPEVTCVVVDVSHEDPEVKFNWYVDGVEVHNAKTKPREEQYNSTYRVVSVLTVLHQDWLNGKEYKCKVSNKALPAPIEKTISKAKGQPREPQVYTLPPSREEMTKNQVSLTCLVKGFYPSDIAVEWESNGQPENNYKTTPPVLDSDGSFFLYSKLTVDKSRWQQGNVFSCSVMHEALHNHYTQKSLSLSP
# light: B1 light with Q24R, E27R, G41R, Q42K, S65R, T69R
# notes: copies: 2 + 2
# B20: Ab1H/Ab1L022 (antibody, human IgG1, kappa)
# heavy: not shown
# light: B1 light with Q24R, E27R, T74K, S77R
# notes: copies: 2 + 2
# B21: Ab1H/Ab1L029 (antibody, human IgG1, kappa)
# heavy: not shown
# light: B1 light with A25R, S26R, S52K, S56K
# notes: copies: 2 + 2
# B22: Ab1H-P940/Ab1L (antibody, human IgG1, kappa, name in EU numbering)
# heavy: B1 heavy with E271R, R274E
# light: B1 light
# notes: copies: 2 + 2
# B23: Ab1H-P938/Ab1L (antibody, human IgG1, kappa, name in EU numbering)
# heavy: B1 heavy with P273R, R274E
# light: B1 light
# notes: copies: 2 + 2
# B24: Ab1H/Ab1L036 (antibody, human IgG1, kappa)
# heavy: not shown
# light: B1 light with Q24R, E27R, S65R, T69R, S76R, Q79K
# notes: copies: 2 + 2
# B25: Ab1H/Ab1L025 (antibody, human IgG1, kappa)
# heavy: not shown
# light: B1 light with A25R, S26R, Q37R
# notes: copies: 2 + 2
# B26: Ab1H/Ab1L019 (antibody, human IgG1, kappa)
# heavy: not shown
# light: B1 light with Q24R, E27R, S52R, S56R
# notes: copies: 2 + 2
# B27: Ab1H/Ab1L023 (antibody, human IgG1, kappa)
# heavy: not shown
# light: B1 light with Q24R, E27R, S76R, Q79K
# notes: copies: 2 + 2
# B28: Ab1H/Ab1L011 (antibody, human IgG1, kappa)
# heavy: not shown
# light: B1 light with S52K, S56K
# notes: copies: 2 + 2
# B29: Ab1H/Ab1L030 (antibody, human IgG1, kappa)
# heavy: not shown
# light: B1 light with A25R, S26R, S65R, T69R
# notes: copies: 2 + 2
# B30: Ab1H/Ab1L005 (antibody, human IgG1, kappa)
# heavy: not shown
# light: B1 light with A25K, S26K
# notes: '526K' read as S26K; copies: 2 + 2
# B31: Ab1H/Ab1L014 (antibody, human IgG1, kappa)
# heavy: not shown
# light: B1 light with S76R, Q79K
# notes: copies: 2 + 2
# B32: Ab1H/Ab1L021 (antibody, human IgG1, kappa)
# heavy: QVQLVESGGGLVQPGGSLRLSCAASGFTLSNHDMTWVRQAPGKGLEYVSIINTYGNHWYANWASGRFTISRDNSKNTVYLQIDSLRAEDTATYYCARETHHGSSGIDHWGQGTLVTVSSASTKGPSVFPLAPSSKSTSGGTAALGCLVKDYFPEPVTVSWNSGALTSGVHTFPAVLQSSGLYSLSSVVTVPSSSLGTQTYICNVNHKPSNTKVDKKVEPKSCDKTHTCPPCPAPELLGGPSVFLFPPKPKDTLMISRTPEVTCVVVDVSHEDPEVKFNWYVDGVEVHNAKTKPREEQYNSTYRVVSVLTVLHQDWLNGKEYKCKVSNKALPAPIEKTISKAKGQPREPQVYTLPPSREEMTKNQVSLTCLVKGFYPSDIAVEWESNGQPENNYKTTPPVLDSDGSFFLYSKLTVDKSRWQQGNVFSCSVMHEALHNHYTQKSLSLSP
# light: B1 light with Q24R, E27R, S65R, T69R
# notes: '169R' read as T69R; copies: 2 + 2
# B33: Ab1H-P939/Ab1L (antibody, human IgG1, kappa, name in EU numbering)
# heavy: B1 heavy with D272R, R274E
# light: B1 light
# notes: copies: 2 + 2
# B34: Ab1H/Ab1L010 (antibody, human IgG1, kappa)
# heavy: not shown
# light: B1 light with S52R, S56R
# notes: copies: 2 + 2
# B35: Ab1H/Ab1L035 (antibody, human IgG1, kappa)
# heavy: not shown
# light: B1 light with Q24R, E27R, S65R, T69R, T74K, S77R
# notes: copies: 2 + 2
# B36: Ab1H/Ab1L012 (antibody, human IgG1, kappa)
# heavy: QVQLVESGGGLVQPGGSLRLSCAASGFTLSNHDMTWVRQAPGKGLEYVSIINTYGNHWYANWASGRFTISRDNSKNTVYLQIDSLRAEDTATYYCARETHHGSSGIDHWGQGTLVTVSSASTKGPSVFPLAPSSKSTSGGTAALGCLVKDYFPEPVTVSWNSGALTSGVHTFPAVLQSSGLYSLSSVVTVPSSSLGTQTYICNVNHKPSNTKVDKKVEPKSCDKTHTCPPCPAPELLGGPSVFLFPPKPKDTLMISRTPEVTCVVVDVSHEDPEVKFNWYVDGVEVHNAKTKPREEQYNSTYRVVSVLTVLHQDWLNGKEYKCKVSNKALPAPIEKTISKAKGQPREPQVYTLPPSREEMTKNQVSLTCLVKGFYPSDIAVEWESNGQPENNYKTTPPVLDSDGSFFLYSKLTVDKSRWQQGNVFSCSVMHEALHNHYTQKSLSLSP
# light: B1 light with S65R, T69R
# notes: copies: 2 + 2
# Tests used:
# [1] = biological target: T1, soluble human FcγRIIb; test: SPR, Ab-IgE complex over captured hFcγRIIb, pH 7.4, 25C
# Protocol: Fc region variant-containing antibody binding assays between soluble human FcγRIIb (a.k.a. “hFcγRIIb”) and antigen-antibody complexes were performed using BIACORE® T200 (GE Healthcare). Soluble hFcγRIIb was produced in the form of a His-tagged molecule using methods known in the art. An appropriate amount of an anti-His antibody was fixed onto Sensor chip CM5 (GE Healthcare) by the amine coupling method using a His capture kit (GE Healthcare) to capture hFcγRIIb. Next, an antibody-antigen complex and a running buffer (as a reference solution) was injected, and interaction was allowed to take place with the hFcγRIIb captured onto the sensor chip. 20 mM N-(2-Acetamido)-2-aminoethanesulfonic acid, 150 mM NaCl, 1.2 mM CaCl₂, and 0.05% (w/v) Tween 20 at pH 7.4 was used as the running buffer, and the respective buffer was also used to dilute the soluble hFcγRIIb. To regenerate the sensor chip, 10 mM glycine-HCl at pH 1.5 was used. All measurements were carried out at 25° C. Analyses were performed based on binding (RU) calculated from sensorgrains obtained by the measurements, and relative values when the binding amount of P600 was defined as 1.00 are shown. To calculate the parameters, the BIACORE® T100 Evaluation Software (GE Healthcare) was used.
# [2] = biological target: T1, soluble human FcγRIIb; test: as above; remark: listed apart in the source
# Protocol: Regarding the produced Fc region variant-containing antibodies, binding assays between soluble human FcγRIIb and antigen-antibody complexes were performed using BIACORE T200 (GE Healthcare). Soluble human FcγRIIb (NCBI accession NM_004001.3) was produced in the form of a His-tagged molecule by a method known in the art. An appropriate amount of an anti-His antibody was fixed onto Sensor chip CM5 (GE Healthcare) by the amine coupling method using a His capture kit (GE Healthcare) to capture human FcγRIIb. Next, an antibody-antigen complex and a running buffer (as a reference solution) were injected, and interaction was allowed to take place with the human FcγRIIb captured onto the sensor chip. 20 mM N-(2-Acetamido)-2-aminoethanesulfonic acid, 150 mM NaCl, 1.2 mM CaCl₂, and 0.05% (w/v) Tween 20 at pH 7.4 was used as the running buffer, and the respective buffer was also used to dilute the soluble human FcγRIIb. To regenerate the sensor chip, 10 mM glycine-HCl at pH 1.5 was used. All measurements were carried out at 25° C. Analyses were performed based on binding (RU) calculated from sensorgrams obtained by the measurements, and relative values when the binding amount of Ab1H/Ab1L (original Ab1) was defined as 1.00 are shown. To calculate the parameters, the BIACORE T100 Evaluation Software (GE Healthcare) was used.
Binder,"relative binding (RU), P600=1.00 [1] [fold]","BIACORE fold (relative binding, original Ab1=1.00) [2] [fold]"
B1,0.21,–
B2,–,1.06
B3,–,1.71
B4,0.47,–
B5,–,1.27
B6,–,1.7
B7,–,1.18
B8,–,1.07
B9,–,1.03
B10,–,1.22
B11,–,1.01
B12,–,-0.02
B13,–,1.03
B14,–,0.07
B15,–,1.09
B16,–,1.25
B17,–,1.36
B18,–,1.46

Binder,"relative binding (RU), P600=1.00 [1] [fold]","BIACORE fold (relative binding, original Ab1=1.00) [2] [fold]"
B19,–,1.26
B20,–,1.45
B21,–,1.23
B22,-0.05,–
B23,-0.06,–
B24,–,1.48
B25,–,1.39
B26,–,1.17
B27,–,1.39
B28,–,1.02
B29,–,1.16
B30,–,0.84
B31,–,1.08
B32,–,1.36
B33,-0.07,–
B34,–,0.98
B35,–,1.49
B36,–,0.97
